We go through eleven molecules from paper PMC3742261, “Integrated Self-Assembly of the Mms6 Magnetosome Protein to Form an Iron-Responsive Structure” (International Journal of Molecular Sciences, 2013).

Where “and” joins values, the source holds several entries; their conditions need not be identical. Equal entries are not always repeated.

Data set [1] concerns the target Mms6 L84A, L86A, L88A, L90A, L92A (GL repeat replaced with a GA repeat) (Magnetospirillum magneticum strain AMB-1) (UniProt Q2W8R5). The data set can be described thus: SEC; Superose 12 column, protein loaded at 0.2 mg/mL, BC100 buffer (20 mM Tris, 100 mM KCl, pH 7.5), 4 °C; percent of total protein in the void volume by peak integration. In general terms: Size exclusion chromatography separates by hydrodynamic size, large species first.

For data set [2] the target is unchanged. Put plainly: SEC; Superose 12 column, protein loaded at 1 mg/mL, 4 °C; percent of total protein in the void volume by peak integration.
Data set [3] has as its target Mms6 L132G (Magnetospirillum magneticum strain AMB-1) (UniProt Q2W8R5). The data set can be described thus: SEC; Superose 12 column, protein loaded at 0.2 mg/mL, BC100 buffer (20 mM Tris, 100 mM KCl, pH 7.5), 4 °C; percent of total protein in the void volume by peak integration.
The target in data set [4] is Mms6 W95A (Magnetospirillum magneticum strain AMB-1) (UniProt Q2W8R5). Described as above.
In data set [5] the target is Mms6 W79A (Magnetospirillum magneticum strain AMB-1) (UniProt Q2W8R5). The data set is described as above.
Data set [6] addresses Mms6 (wild type, mature form, His-tagged) (Magnetospirillum magneticum strain AMB-1) (UniProt Q2W8R5). Described as above.
In data set [7] the target is Mms6 W95F (Magnetospirillum magneticum strain AMB-1) (UniProt Q2W8R5). Described as above.
The target of data set [8] is Mms6 L128G (Magnetospirillum magneticum strain AMB-1) (UniProt Q2W8R5). Described as above.
Data set [9] addresses Mms6 I117G (Magnetospirillum magneticum strain AMB-1) (UniProt Q2W8R5). Described as above.
For data set [10], the target named is Mms6 W79F (Magnetospirillum magneticum strain AMB-1) (UniProt Q2W8R5). The description is as above.
In data set [11] the target is Mms6 W79F,W95F (Magnetospirillum magneticum strain AMB-1) (UniProt Q2W8R5). Described as above.
Data set [12] deals with the molecule itself. The data set can be described thus: SEC; Superdex Peptide 10/300 column, 80 micrograms C21Mms6, 10 mM Pi, pH 7.5; size from a standard curve.
Data set [13] concerns the molecule itself. Put plainly: SEC; Superdex Peptide 10/300 column, 80 micrograms C21Mms6, 20 mM Tris, pH 7.5; size from a standard curve.
Data set [14] deals with the molecule itself. Put plainly: SEC; Superdex Peptide 10/300 column, 80 micrograms C21Mms6, 10 mM Pi, 100 mM KCl, pH 7.5; size from a standard curve.
Data set [15] deals with the molecule itself. Put plainly: SEC; Superdex Peptide 10/300 column, 80 micrograms C21Mms6, 50 mM Formate or Citrate, pH 3; size from a standard curve.
Data set [16] deals with the molecule itself. Put plainly: SEC; Superdex Peptide 10/300 column, 80 micrograms C21Mms6, 20 mM Tris, 100 mM KCl, pH 7.5; size from a standard curve.
Data set [17] deals with the molecule itself. The data set can be described thus: SEC; Superdex Peptide 10/300 column, 80 micrograms C21Mms6, 50 mM Formate or Citrate, pH 3 with FeCl3:protein = 8:1; size from a standard curve.
Data set [18] concerns the molecule itself. Put plainly: SEC; Superdex Peptide 10/300 column, 80 micrograms C21Mms6, 20 mM Tris, 1.5 or 3 M KCl, pH 7.5; size from a standard curve.

With “Mms6 L84A, L86A, L88A, L90A, L92A (GL repeat replaced with a GA repeat) (from UniProt Q2W8R5 1-133) (natural protein)”, the % protein in Vo in data set [1] is 46% and 54%; in data set [2], 55%.
Regarding “Mms6 L132G (from UniProt Q2W8R5 1-133) (natural protein)”, the % protein in Vo in data set [3] was 29% and 37%.
As to “Mms6 W95A (from UniProt Q2W8R5 1-133) (natural protein)”, in [4], the % protein in Vo was 49% and 70%.
With “Mms6 W79A (from UniProt Q2W8R5 1-133) (natural protein)”, the % protein in Vo in [5] is 79% and 83%.
The molecule “Mms6 (wild type, mature form, His-tagged) (from UniProt Q2W8R5 1-133) (natural protein)” displayed a % protein in Vo in data set [6] of 100%.
In [7], “Mms6 W95F (from UniProt Q2W8R5 1-133) (natural protein)” had a % protein in Vo of 97%.
Take “Mms6 L128G (from UniProt Q2W8R5 1-133) (natural protein)”: the % protein in Vo in data set [8] is 63% and 86%.
Turning to “Mms6 I117G (from UniProt Q2W8R5 1-133) (natural protein)”, in data set [9], the % protein in Vo is 94% and 95%.
The molecule “Mms6 W79F (from UniProt Q2W8R5 1-133) (natural protein)” registered a % protein in Vo in data set [10] of 96%.
Consider “Mms6 W79F,W95F (from UniProt Q2W8R5 1-133) (natural protein)”, for which, in [11], the % protein in Vo is 75% and 82%.

B1: C21Mms6 (synthetic peptide of the C-terminal 21 amino acids of Mms6) (peptide, UniProt Q2W8R5 113-133, looked up)
peptide: KSRDIESAQSDEEVELRDALA
notes: Mms6, Magnetospirillum magneticum AMB-1, C-terminal 21 amino acids; also called synthetic 21 amino acid peptide C-terminal domain; source: synthetic peptide, ordered from GenScript
The term stoichiometry N denotes a count of units in the complex or per binding partner. As to B1, the “stoichiometry N” value in data set [12] came out at 7.3 C21Mms6 units/multimer; in data set [13], 2 C21Mms6 units/multimer; in data set [14], 4 C21Mms6 units/multimer; in data set [15], 2 C21Mms6 units/multimer; in [16], 4.1 C21Mms6 units/multimer; in data set [17], 2.1 C21Mms6 units/multimer. Besides, in data set [18], the “stoichiometry N” value was determined as 1.8 C21Mms6 units/multimer.
